Experimental findings from doi:10.1101/2025.02.06.636796 are described below.

For experiment [1], the target named is Taxol-stabilized microtubules of mouse brain tubulin (untreated, wild-type) (mouse) (UniProt P68369). Nature of the experiment: FRAP in TIRF microscopy on immobilised microtubules.
For experiment [2] the target is unchanged. The experiment can be described thus: cell lysate-based TIRF microscopy on immobilised microtubules.

As for “YFP-Trim69 wild type (Tripartite motif protein 69) (from UniProt Q86WT6 1-500) (natural protein)”, the fluorescence recovery at 6.5 min after photobleaching in experiment [1] is 20%. In experiment [2], this substance registered a cumulative fluorescent signal on MTs of 395, a density on MTs at 10x lysate dilution of 2980, a density on MTs at 100x lysate dilution of 731 and a fluorescent intensity on microtubules of 194.
